The text below walks through data of patent US20210040204A1 (INSERM INSTITUT NATIONAL DE LA SANT ET DE LA RECHERCHE M …, published 2021).

Assay [1] has as its target T1, human Claudin-1 (human, UniProt O95832 1-211).
T1 construct: whole, on cells; also called CLDN1; human CLDN1
T1 sequence (looked up): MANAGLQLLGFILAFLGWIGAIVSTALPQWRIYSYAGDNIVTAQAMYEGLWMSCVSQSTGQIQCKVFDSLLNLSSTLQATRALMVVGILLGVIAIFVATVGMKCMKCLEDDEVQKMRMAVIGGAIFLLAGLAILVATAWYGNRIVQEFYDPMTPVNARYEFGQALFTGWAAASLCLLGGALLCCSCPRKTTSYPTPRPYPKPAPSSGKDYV
As to the kind of experiment: flow cytometry on Huh7.5.1 and HepG2 cells with surface CLDN1 (FIG. 2A). As for the experimental part: (§1) FIG. 2. […] (A) Flow cytometry analysis of the binding of humanized OM-7D3-B3 anti-CLDN1 mAbs (20 μg/mL) to cell lines. […] Binding is expressed as delta median fluorescence intensity (ΔMFI). […] After 48 h, cells were stained with isotype control, rat OM-7D3-B3 or humanized H3L3 antibody (20 μg/mL). The ΔMFI from one experiment performed in duplicate are shown. […] Huh 7.5.1 cells were incubated with different mAbs (25 μg/mL) at 37° C. for 1 h prior to infection with HCVcc. Infectivity was assessed after 72 h by measuring luciferase activity and is expressed as log relative luciferase units (RLU). (D) Humanized anti-CLDN1 mAbs inhibit entry of HCVpp bearing envelope glycoproteins of strains H77 (genotype 1a) and HCV-J (genotype 1b). PHH were pre-treated with the humanized antibodies (20 μg/mL) for 1 h at 37° C. prior to infection with HCVpp. Infectivity was measured by luciferase activity after 72 h and is expressed as RLU. Graphs show results from one experiment performed in duplicate (A, B, D) or in triplicate (C).
Flow cytometry. […] Cells were washed and incubated with phycoerythrin (PE)-conjugated species-specific secondary antibodies at 4° C. for 45 min to allow detection of binding. Cells were subsequently washed and fixed with 2% paraformaldehyde (PFA) prior to analysis by flow cytometry using a BD LSRII flow cytometer. Net delta median fluorescence intensities (ΔMFI) were obtained after subtracting the background fluorescence with PBS. […] After 48 h, binding of antibodies was assessed as described above.

The target of assay [2] is T1, human Claudin-1. Nature of the assay: not described (data not shown).
The target in assay [3] is T1, human Claudin-1. As to the kind of experiment: flow cytometry, 20 µg/mL, Huh7.5.1 and HepG2 cells (FIG. 2A). As for the experimental part:
as §1
(§2) Flow cytometry. […] Cells were washed and incubated with phycoerythrin (PE)-conjugated species-specific secondary antibodies at 4° C. for 45 min to allow detection of binding. […] Net delta median fluorescence intensities (ΔMFI) were obtained after subtracting the background fluorescence with PBS. […] After 48 h, binding of antibodies was assessed as described above.

Assay [4] deals with T1, human Claudin-1. Nature of the assay: flow cytometry, 20 µg/mL, 293T cells transfected with CLDN1-expressing pcDNA3.1 (FIG. 2B). As for the experimental part:
as §1, §2
(Flow cytometry measures light scatter and fluorescence of single cells or particles in a stream.)

B1: rat anti-CLDN1 mAb OM-7D3-B3 (antibody, V domains shown)
VH: EVQLVESGGGLVQPGRSLKLSCLGSGFSFSSYGMNWIRQAPGKGLEWVASISPSGSYFYYADSVKGRFTISRENAKNTLYLQMTSLRAEDTALYYCARLPGFNPPFDHWGQGVVVTVSS
VL: NTVMTQSPTSMFMSVGDRVTMNCKASQNVGGNVDWYQWKPGQSPKLLMYGASNRYTGVPDRFRGSGSGTDFTLTISNMQTEDLAVYYCLQYKNNPWTFGGGTKVELK
notes: Hybridoma antibody, rat IgG2b with rat kappa light chain; also called rat OM-7D3-B3; parental rat antibody
Consider B1, for which the binding result in assay [1] is reported as “binds”.

B2: recombinant full-length IgG2b (parent isotype) antibody with the VH and VL of rat OM-7D3-B3 (antibody, V domains shown)
VH: EVQLVESGGGLVQPGRSLKLSCLGSGFSFSSYGMNWIRQAPGKGLEWVASISPSGSYFYYADSVKGRFTISRENAKNTLYLQMTSLRAEDTALYYCARLPGFNPPFDHWGQGVVVTVSS
VL: NTVMTQSPTSMFMSVGDRVTMNCKASQNVGGNVDWYQWKPGQSPKLLMYGASNRYTGVPDRFRGSGSGTDFTLTISNMQTEDLAVYYCLQYKNNPWTFGGGTKVELK
notes: IgG2b as the parent; also called recombinant full-length IgG2b antibody
Take B2: in assay [2], the binding result is reported as “binds”.

B3: humanized anti-CLDN1 mAb H2L1 (antibody, V domains shown)
VH: QVQLVESGGGVVQPGRSLRLSCAASGFSFSSYGMNWVRQAPGKGLEWVTSISPSGSYFYYADSVKGRFTISRDNSKNTLYLQMNSLRAEDTAIYYCARLPGFNPPFDHWGQGTLVTVSS
VL: DIQMTQSPATLSVSPGERATLSCKASQNVGGNVDWYQWKPGQAPRLLIYGASNRYTGIPARFRGSGSGTEFTLTISSLQSEDFAVYYCLQYKNNPWTFGQGTKVEIK
notes: Full-length antibody made in CHO cells; variable domains fused to the constant domains of human IgG4 heavy and human kappa light chains
Turning to B3, the binding result in assay [1] is “binds”.

B4: humanized anti-CLDN1 mAb H2L2 (antibody, V domains shown)
VH: QVQLVESGGGVVQPGRSLRLSCAASGFSFSSYGMNWVRQAPGKGLEWVTSISPSGSYFYYADSVKGRFTISRDNSKNTLYLQMNSLRAEDTAIYYCARLPGFNPPFDHWGQGTLVTVSS
VL: DIQMTQSPSSLSASVGDRVTITCKASQNVGGNVDWYQWKPGKAPKLLIYGASNRYTGVPSRFRGSGSGTDFTLTISSLQPEDVATYYCLQYKNNPWTFGQGTKVEIK
notes: as for B3
In the case of B4, the binding result in assay [1] is listed as “binds”.

B5: humanized anti-CLDN1 mAb H1L3 (antibody, V domains shown)
VH: EVQLVESGGGLVKPGGSLRLSCAASGFSFSSYGMNWVRQAPGKGLEWVSSISPSGSYFYYADSVKGRFTISRDNAKNSLYLQMNSLRAEDTAVYYCARLPGFNPPFDHWGQGTLVTVSS
VL: DIQMTQSPSSLSASVGDRVTITCKASQNVGGNVDWYQWKPGKAPKLLIYGASNRYTGVPDRFRGSGSGTDFTLTISSLQPEDVATYYCLQYKNNPWTFGGGTKVEIK
notes: as for B3
With B5, the binding result in assay [1] is on record as “binds”.

B6: humanized anti-CLDN1 mAb H1L1 (antibody, V domains shown)
VH: EVQLVESGGGLVKPGGSLRLSCAASGFSFSSYGMNWVRQAPGKGLEWVSSISPSGSYFYYADSVKGRFTISRDNAKNSLYLQMNSLRAEDTAVYYCARLPGFNPPFDHWGQGTLVTVSS
VL: DIQMTQSPATLSVSPGERATLSCKASQNVGGNVDWYQWKPGQAPRLLIYGASNRYTGIPARFRGSGSGTEFTLTISSLQSEDFAVYYCLQYKNNPWTFGQGTKVEIK
notes: as for B3
Consider B6, for which the binding result in assay [3] is “binds”.

B7: humanized anti-CLDN1 mAb H1L2 (antibody, V domains shown)
VH: EVQLVESGGGLVKPGGSLRLSCAASGFSFSSYGMNWVRQAPGKGLEWVSSISPSGSYFYYADSVKGRFTISRDNAKNSLYLQMNSLRAEDTAVYYCARLPGFNPPFDHWGQGTLVTVSS
VL: DIQMTQSPSSLSASVGDRVTITCKASQNVGGNVDWYQWKPGKAPKLLIYGASNRYTGVPSRFRGSGSGTDFTLTISSLQPEDVATYYCLQYKNNPWTFGQGTKVEIK
notes: as for B3
On to B7, for which, in assay [1], the binding result is “binds”.

B8: humanized anti-CLDN1 mAb H3L1 (antibody, V domains shown)
VH: QVQLVESGGGVVQPGRSLRLSCLGSGFSFSSYGMNWVRQAPGKGLEWVASISPSGSYFYYADSVKGRFTISRDNSKNTLYLQMTSLRAEDTAIYYCARLPGFNPPFDHWGQGTLVTVSS
VL: DIQMTQSPATLSVSPGERATLSCKASQNVGGNVDWYQWKPGQAPRLLIYGASNRYTGIPARFRGSGSGTEFTLTISSLQSEDFAVYYCLQYKNNPWTFGQGTKVEIK
notes: as for B3
For B8, the binding result in assay [1] is listed as “binds”.

B9: humanized anti-CLDN1 mAb H3L3 (antibody, V domains shown)
VH: QVQLVESGGGVVQPGRSLRLSCLGSGFSFSSYGMNWVRQAPGKGLEWVASISPSGSYFYYADSVKGRFTISRDNSKNTLYLQMTSLRAEDTAIYYCARLPGFNPPFDHWGQGTLVTVSS
VL: DIQMTQSPSSLSASVGDRVTITCKASQNVGGNVDWYQWKPGKAPKLLIYGASNRYTGVPDRFRGSGSGTDFTLTISSLQPEDVATYYCLQYKNNPWTFGGGTKVEIK
notes: Full-length antibody made in CHO cells; variable domains fused to the constant domains of human IgG4 heavy and human kappa light chains; also called humanized anti-CLDN1 antibody clone H3L3; humanized CLDN1 mAb (H3L3)
As for B9, the binding result in assay [4] is reported as “binds”.

B10: humanized anti-CLDN1 mAb H3L2 (antibody, V domains shown)
VH: QVQLVESGGGVVQPGRSLRLSCLGSGFSFSSYGMNWVRQAPGKGLEWVASISPSGSYFYYADSVKGRFTISRDNSKNTLYLQMTSLRAEDTAIYYCARLPGFNPPFDHWGQGTLVTVSS
VL: DIQMTQSPSSLSASVGDRVTITCKASQNVGGNVDWYQWKPGKAPKLLIYGASNRYTGVPSRFRGSGSGTDFTLTISSLQPEDVATYYCLQYKNNPWTFGQGTKVEIK
notes: as for B3
Consider B10, for which, in assay [1], the binding result is “binds”.

B11: humanized anti-CLDN1 mAb H2L3 (antibody, V domains shown)
VH: QVQLVESGGGVVQPGRSLRLSCAASGFSFSSYGMNWVRQAPGKGLEWVTSISPSGSYFYYADSVKGRFTISRDNSKNTLYLQMNSLRAEDTAIYYCARLPGFNPPFDHWGQGTLVTVSS
VL: DIQMTQSPSSLSASVGDRVTITCKASQNVGGNVDWYQWKPGKAPKLLIYGASNRYTGVPDRFRGSGSGTDFTLTISSLQPEDVATYYCLQYKNNPWTFGGGTKVEIK
notes: as for B3
In the case of B11, in assay [1], the binding result is reported as “binds”.
